Results from patent publication US20150050278A1 (US Dept. of Health and Human Services, published 2015).

Experiments:
[1] = molecular target: T1, human neonatal Fc receptor (FcRn), soluble (human, UniProt P55899 24-297; P61769 21-119, limits assumed); assay: ELISA on coated human FcRn at pH 6.0, OD405
T1 construct: also called human FcRn; human single-chain soluble FcRn
Description: Antigens were coating on ELISA plate wells at 50 ng per well in PBS overnight at 4° C., blocked with protein-free blocking buffer for 1 h at 37° C. Threefold serially diluted protein was added and incubated at 37° C. for 2 h. The plates were washed with PBST, and HRP-conjugated anti-Fc antibody in PBS was incubated with wells for 1 h at 37° C. After extensive washes with PBST, the binding was detected with the addition of ABTS substrate, and signals were read at 405 nm. For FcRn binding test at pH 6.0, all proteins were prepared in PBS with pH adjusted to 6.0 by HCl, and PBST with pH 6.0 was used for washing the wells.

[2] = molecular target: T1, human neonatal Fc receptor (FcRn), …; assay: SPR (BIAcore X100), human FcRn immobilised on CM5 chip, pH 6.0; SPR (BIAcore X100), FcRn on CM5 chip, pH 6.0
Description: The interaction of monomeric Fc with immobilized FcRn was monitored by SPR detection using a BIAcore X100 instrument (GE Healthcare). Purified human FcRn was diluted in 10 mM Na-acetate buffer, pH 5.0, and immobilized on a CM5 biosensor chip using amine coupling kit. The running buffer was PBS with 0.005% Tween 20 for testing binding at pH 7.4, or PBS pH 6.0 with 0.005% Tween 20 for binding at pH 6.0. […] After 10 min of dissociation, the chip was regenerated with pH 8.0 buffer (100 mM Tris, pH 8.0, 50 mM NaCl).
Human FcRn was immobilized on a CM5 bio sensor chip followed by analysis of the interaction using BIAcore X100. The binding was performed under pH 6.0 and pH 7.4, respectively, and the chip was regenerated with pH 8.0 buffer.

[3] = molecular target: T1, human neonatal Fc receptor (FcRn), …; assay: SPR (BIAcore), human FcRn immobilised, pH 6.0; concentrations not given
[4] = molecular target: T1, human neonatal Fc receptor (FcRn), …; assay: SPR, human FcRn immobilised, pH 6.0; pH 6.0
[5] = molecular target: T1, human neonatal Fc receptor (FcRn), …; assay: SPR (BIAcore), human FcRn immobilised, pH 6.0; SPR (BIAcore), FcRn on the chip, pH 6.0
Description: The interaction of monomeric Fc with immobilized FcRn was monitored by SPR detection using a BIAcore X100 instrument (GE Healthcare). Purified human FcRn was diluted in 10 mM Na-acetate buffer, pH 5.0, and immobilized on a CM5 biosensor chip using amine coupling kit. The running buffer was PBS with 0.005% Tween 20 for testing binding at pH 7.4, or PBS pH 6.0 with 0.005% Tween 20 for binding at pH 6.0. […] After 10 min of dissociation, the chip was regenerated with pH 8.0 buffer (100 mM Tris, pH 8.0, 50 mM NaCl). Another test with a protein concentration of 500 nM was repeated to monitor the regeneration efficiency.
It was determined whether mCH3 could bind FcRn in a pH-dependent manner. Surface plasmon resonance (SPR) binding was performed using a BIAcore instrument with human FcRn immobilized on the chip, as described previously. The measurements were carried out under pH 6.0 or pH 7.4, and the chips were regenerated after binding by injection of a pH 8.0 buffer.

T1 sequence (P55899 24-297 limits assumed, chain 1 of 2): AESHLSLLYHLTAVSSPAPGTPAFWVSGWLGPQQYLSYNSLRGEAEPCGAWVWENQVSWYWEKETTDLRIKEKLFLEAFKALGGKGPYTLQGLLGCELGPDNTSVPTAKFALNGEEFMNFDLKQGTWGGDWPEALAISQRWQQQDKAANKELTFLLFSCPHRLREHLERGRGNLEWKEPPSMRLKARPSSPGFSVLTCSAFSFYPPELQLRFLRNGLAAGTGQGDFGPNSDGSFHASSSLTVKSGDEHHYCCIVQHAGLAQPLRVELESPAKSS
T1 sequence (P61769 21-119 limits assumed, chain 2 of 2): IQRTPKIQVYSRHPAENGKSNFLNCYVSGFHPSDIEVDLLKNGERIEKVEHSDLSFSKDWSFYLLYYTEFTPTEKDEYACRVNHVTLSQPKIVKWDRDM

| Binder | EC50 (read off the curve) [1] [nM] | Kd [2] [nM] | other results |
| --- | --- | --- | --- |
| mFc.1 (designed binder, also called monomeric Fc mFc.1) APELLGGPSVFLFPPKPKDTLMISRTPEVTCVVVDVSHEDPEVKFNWYVDGVEVHNAKTKPREEQYNSTYRVVSVLTVLHQDWLNGKEYKCKVSNKALPAPIEKTISKAKGQPREPQVYTYPPSRDELTKNQVSLYCAVKGFYPSDIAVEWESNGQPENNYKTTRPVLDSDGSFRLMSALTVDKSRWQQGNVFSCSVMHEALHNHYTQKSLSLSPGK | ~100 | 204 | – |
| mFc.67 (designed binder, also called monomeric Fc mFc.67; mFc.67 monomer) APELLGGPSVFLFPPKPKDTLMISRTPEVTCVVVDVSHEDPEVKFNWYVDGVEVHNAKTKPREEQYNSTYRVVSVLTVLHQDWLNGKEYKCKVSNKALPAPIEKTISKAKGQPREPQVYTKPPSRDELTKNQVSLSCLVKGFYPSDIAVEWESNGQPENNYKTTVPVLDSDGSFRLASYLTVDKSRWQQGNVFSCSVMHEALHNHYTQKSLSLSPGK | – | 111 | – |
| mFc.23 (designed binder, also called monomeric Fc mFc.23) APELLGGPSVFLFPPKPKDTLMISRTPEVTCVVVDVSHEDPEVKFNWYVDGVEVHNAKTKPREEQYNSTYRVVSVLTVLHQDWLNGKEYKCKVSNKALPAPIEKTISKAKGQPREPQVYTSPPSRDELTKNQVSLRCHVKGFYPSDIAVEWESNGQPENNYKTTKPVLDSDGSFELKSALTVDKSRWQQGNVFSCSVMHEALHNHYTQKSLSLSPGK | ~60 | 59 | – |
| wild-type CH3 domain (other, also called isolated CH3; Fc CH3 domain) PREPQVYTLPPSRDELTKNQVSLTCLVKGFYPSDIAVEWESNGQPENNYKTTPPVLDSDGSFFLYSKLTVDKSRWQQGNVFSCSVMHEALHNHYTQKSLSLSPGK | – | – | binding result [3]: no binding |
| mCH3 343C/431C mutant (mCH3cc) (designed binder, additional disulfide bond between Cys343 and Cys431, also called engineered mCH3) CREPQVYTSPPSRDELTKNQVSLRCHVKGFYPSDIAVEWESNGQPENNYKTTKPVLDSDGSFFLYSKLTVDKSRWQQGNVFSCSVMHECLHNHYTQKSLSLSPGK | – | – | Kd [4]: 1080 nM |
| monomeric CH3 domain (mCH3) (designed binder) PREPQVYTSPPSRDELTKNQVSLRCHVKGFYPSDIAVEWESNGQPENNYKTTKPVLDSDGSFFLYSKLTVDKSRWQQGNVFSCSVMHEALHNHYTQKSLSLSPGK | – | – | Kd [5]: 940 nM |
